This data set deals with Saccharomyces cerevisiae. Kind of data set: protein stability index of tFT-peptide fusion (C-terminal peptide) (PSI (0-1 scale)); higher = more stable (slower turnover). To be noted: genetic background: wild type; temperature: 30 C.

± gives the standard deviation of the averaged measurements.
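Also: PSI is a weighted mean of sequencing reads over stability bins, variants kept only with over 10 reads, mCherry proximal and sfGFP distal, peptide attached via GGGS linker.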

In turn, YACFRYEYNRLR had a protein stability index of 0.679 ± 0.029.
Sequence YACRLAPGDLLA gave a protein stability index of 0.643 ± 0.0088.
As for YAIINISRESLD, the figure is 0.717 ± 0.062.
For YAVGSAGLGVGL, the protein stability index came to 0.697 ± 0.1.
As for YAVIRILCSSRR, the protein stability index was determined as 0.5725 ± 0.0039.
For the sequence YDMFCSYRFYPI, the protein stability index came to 0.636 ± 0.07.
YDRVVHASSTMW displayed a protein stability index of 0.707 ± 0.013.
As for YEASSIPAWRYV, the figure is 0.529 ± 0.034; as for YEGPSTLVYHVR, 0.915 ± 0.082.
In the case of YESIVLYPEMYL, the protein stability index worked out at 0.714 ± 0.2.
As for YFFQAFLLRTPL, the figure is 0.642 ± 0.018.
Sequence YFGGRGARGRER returned a protein stability index of 0.676 ± 0.027.
As for YFGGRGPRGRER, the protein stability index turned out to be 0.714 ± 0.0095.
YFGRGKLGVVRT came in with a protein stability index of 0.705 ± 0.013.
The sequence YFKLLHSRPSVG displayed a protein stability index of 0.675 ± 0.044.
YFLLLLLNSSTP registered a protein stability index of 0.528 ± 0.042.
YFLPLLCRSPSL registered a protein stability index of 0.707 ± 0.0095.
YFPGILFGAIFS came in with a protein stability index of 0.668 ± 0.07.
For YFTNSVPVGTVA, the protein stability index is 0.501 ± 0.0076.
YGSQAYAIDSKP yielded a protein stability index of 0.6369 ± 0.0009.
YGSSFRLVFSVT registered a protein stability index of 0.583 ± 0.0074.
YGVEWGAESNLY registered a protein stability index of 0.8019 ± 0.0068.
As for YHIGSINLTVRQ, the figure is 0.778 ± 0.083.
Sequence YHLISSVRLPSS registered a protein stability index of 0.731 ± 0.033.
For the sequence YIDLLTRVCIRR, the protein stability index was found to be 0.6921 ± 0.0024.
In turn, YIKKTTPTIERG registered a protein stability index of 0.7157 ± 0.0039.
Take YIRSYRITKREE: the protein stability index amounted to 0.656 ± 0.035.
On to YISEKKKIEERK, for which the protein stability index is 0.69 ± 0.032.
As for YKGYEIIGSVQG, the figure is 0.72 ± 0.023.
The sequence YKKLTRKKIQDK yielded a protein stability index of 0.781 ± 0.0088.
Next, YKRKTKMQRVSN: 0.627 ± 0.01; YLEQALLDVQTD: 0.756 ± 0.021.
Next, YLIGRIIYFFGR: 0.582 ± 0.0021; YLLLPPPPPPSL: 0.722 ± 0.0098.
Next, YLNVVSSFYTCS: 0.684 ± 0.02; YLPRREAALRRV: 0.7118 ± 0.0034.
The sequence YLSACLCGGFCS came in with a protein stability index of 0.684 ± 0.047.
Next, YLVSRRSGCDLE: 0.683 ± 0.051; YMCPSFCLPLFP: 0.731 ± 0.1; YNDGSNPYLSRS: 0.722 ± 0.065.
Next, YNFLQSGADPNR: 0.721 ± 0.016; YNLASGIEVPID: 0.664 ± 0.013.
Consider YNSSSYCGGGCG, for which the protein stability index was 0.6844 ± 0.0053.
Consider YPARSPPSPLSL, for which the protein stability index was found to be 0.686 ± 0.025.
YPDYTSATGNIR returned a protein stability index of 0.666 ± 0.016.
Sequence YPHQRGRPDAHH came in with a protein stability index of 0.71 ± 0.021.
As for YPLRCPITATHA, the figure is 0.616 ± 0.099; as for YPPPRPDLPLLQ, 0.679 ± 0.016; as for YPSRSPFLSLSC, 0.683 ± 0.028.
Regarding YPTSLLHLHSPP, the protein stability index came to 0.708 ± 0.044.
The sequence YQLEDSNEKVEN displayed a protein stability index of 0.712 ± 0.085.
In turn, YRKAAGSQDRAV had a protein stability index of 0.663 ± 0.018.
In turn, YRVPWIVESFVD had a protein stability index of 0.751 ± 0.087.
With YSGFYIRRGLTW, the protein stability index amounted to 0.689 ± 0.011.
As for YSILYRMQNSKI, the figure is 0.696 ± 0.021; as for YSKVGCRHSYHT, 0.669 ± 0.017.
With YSPAYDHLRPDH, the protein stability index is 0.7034 ± 0.0069.
Regarding YSPFCPSASPWA, the protein stability index stood at 0.712 ± 0.023.
The sequence YSPSPPSFAFSS showed a protein stability index of 0.801 ± 0.079.
Take YSPVPPPTRPPL: the protein stability index was found to be 0.7069 ± 0.0017.
Regarding YSREVVGKQLFM, the protein stability index turned out to be 0.693 ± 0.027.
As for YSRYAASYSMVV, the protein stability index stood at 0.688 ± 0.021.
Consider YTGRFDSSDIWY, for which the protein stability index is 0.818 ± 0.057.
Sequence YTGVCEWRANVH yielded a protein stability index of 0.689 ± 0.0096.
Next, YTKTGRQRHHCR: 0.677 ± 0.011; YTSELPVLARRH: 0.633 ± 0.021; YVALSTGPLRTP: 0.6828 ± 0.0065.
In turn, YVELTGRITTKL displayed a protein stability index of 0.716 ± 0.038.
YVEVIDERYPCV had a protein stability index of 0.757 ± 0.021.
On to YVGLAAGEVGMG, for which the protein stability index is 0.661 ± 0.02.
In the case of YVQFISFAGTRP, the protein stability index is 0.724 ± 0.025.
For YVSHLLMVGRFI, the protein stability index was determined as 0.616 ± 0.01.
In the case of YWLCITECHIRK, the protein stability index amounted to 0.541 ± 0.0092.
In turn, YYEVVCPLQHRI showed a protein stability index of 0.46 ± 0.16.
As for YYGCGAFGFSVR, the protein stability index worked out at 0.695 ± 0.014.

Values taken from the supplement of paper PMC10724198.
